Assay [1] has as its target T1, cynomolgus monkey DR4 with death domain deletion on ExpiCHO-S cells (cynomolgus monkey (Macaca fascicularis)).
T1 construct: also called cynomolgus DR4
T1 chain: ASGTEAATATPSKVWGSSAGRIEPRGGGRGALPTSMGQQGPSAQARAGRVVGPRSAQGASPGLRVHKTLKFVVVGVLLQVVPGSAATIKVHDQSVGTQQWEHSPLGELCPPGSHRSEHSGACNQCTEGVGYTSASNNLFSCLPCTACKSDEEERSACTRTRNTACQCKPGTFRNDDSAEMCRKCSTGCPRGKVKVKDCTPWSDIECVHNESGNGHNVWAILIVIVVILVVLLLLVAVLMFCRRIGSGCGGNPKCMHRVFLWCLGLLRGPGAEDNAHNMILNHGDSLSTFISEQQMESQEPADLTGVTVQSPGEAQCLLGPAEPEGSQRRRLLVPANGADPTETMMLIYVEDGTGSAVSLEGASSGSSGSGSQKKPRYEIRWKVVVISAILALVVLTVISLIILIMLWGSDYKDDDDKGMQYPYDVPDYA
Description: flow cytometry on ExpiCHO-S cells transiently expressing cynomolgus monkey DR4 (death domain deleted), gMFI PE. A general note: A flow cytometer gives signals particle by particle.

The target of assay [2] is T2, human FAPα (Fibroblast activation protein alpha), cell surface expressed (human, UniProt Q12884 1-760).
T2 construct: Endogenous on human lung fibroblasts and CAFs
T2 sequence: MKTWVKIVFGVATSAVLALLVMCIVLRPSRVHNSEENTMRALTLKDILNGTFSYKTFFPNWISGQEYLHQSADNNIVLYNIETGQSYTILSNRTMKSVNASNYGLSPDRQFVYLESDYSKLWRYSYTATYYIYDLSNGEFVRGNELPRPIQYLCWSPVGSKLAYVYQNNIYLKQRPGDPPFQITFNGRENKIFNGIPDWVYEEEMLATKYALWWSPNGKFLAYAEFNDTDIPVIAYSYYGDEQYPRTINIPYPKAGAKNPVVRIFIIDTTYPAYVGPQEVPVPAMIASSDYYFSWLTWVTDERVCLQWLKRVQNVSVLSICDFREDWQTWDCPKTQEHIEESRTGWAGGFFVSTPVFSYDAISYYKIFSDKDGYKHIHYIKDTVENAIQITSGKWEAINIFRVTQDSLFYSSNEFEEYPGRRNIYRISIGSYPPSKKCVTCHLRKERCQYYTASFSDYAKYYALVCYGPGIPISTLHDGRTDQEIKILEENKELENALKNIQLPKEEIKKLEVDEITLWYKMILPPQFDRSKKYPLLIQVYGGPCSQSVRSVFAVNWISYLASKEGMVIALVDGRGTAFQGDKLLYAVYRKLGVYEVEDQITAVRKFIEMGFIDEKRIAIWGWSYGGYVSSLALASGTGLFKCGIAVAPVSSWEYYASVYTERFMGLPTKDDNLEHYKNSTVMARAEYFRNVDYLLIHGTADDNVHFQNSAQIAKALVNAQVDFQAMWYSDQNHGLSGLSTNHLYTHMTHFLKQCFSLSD
Description: flow cytometry, human lung fibroblasts, n = 1. Here is the method:
Human lung fibroblasts and CAFs (50,000 cells/well) were seeded in 96-Well round bottom plates (Greiner Bio-one, Cat #650101). Antibody dilutions were prepared using fluorescence-activated cell sorting (FACS) buffer, consisting of phosphate buffer saline (PBS, Lonza, Cat #BE17-517Q)+1% Bovine Serum Albumin (BSA, Roche, Cat #10735086001)+0.02% Sodium Azide (Bio-World, Cat #41920044-3). Plates were centrifuged, supernatant was removed, cells were resuspended in 50 μL of human Fc Block (BD, Cat #564220, diluted 1:100 in FACS buffer) and 50 μL of viability stain TO-PRO-3 Iodide (Thermo Fisher, Cat #T3605, diluted 1: 25,000 in FACS buffer), and incubated for 15 min at 4° C. Plates were washed three times with FACS buffer. Plates were centrifuged, supernatant was removed, cells were resuspended in 50 μL of antibody dilutions (concentration range 90-0.0005 μg/mL, three-fold dilution steps using FACS buffer) of BisG1-FAPα-FERL/DR4-FERR, BisG1-FAPα-FERL/b12-FERR, BisG1-b12-FERL/b12-FERR (top six concentrations only for CAFs culture) or IgG1-FAPα-FERL (top four concentrations only for CAFs culture) and incubated for 30 min at 4° C. Cells were washed three times with FACS buffer and resuspended in 50 μL of Fluorescein isothiocyanate (FITC)-labeled polyclonal antibody goat anti-mouse IgG1 (Jackson Immuno Research, Cat #109-096-097, diluted 1:100 in FACS buffer). After 30 min incubation at 4° C., cells were washed twice with FACS buffer and resuspended in FACS buffer. Antibody binding to viable cells (TO-PRO-3 negative) was analyzed by flow cytometry on a FACSCelesta™ (BD biosciences) and data were processed using FlowJo_v10.8.1 (FlowJo LLC). Geomean fluorescence intensity, gMFI, was determined and visualized using GraphPad Prism. Binding curves were analyzed using nonlinear regression analysis. The concentration (pg/mL) at which 50% of the maximal effect was observed (EC₅₀) was derived from the fitted curves.
Binding of FAPα-targeting monoclonal antibody clones, IgG1-FAPα-FEAL and IgG1-FAP5-FEAL, and bispecific antibodies carrying a binding arm derived from the two FAPα-binding clones (BisG1-FAPα-FEAL/b12-FEAR and BisG1-FAP5-FEAL/b12-FEAR) to human lung fibroblasts, which endogenously express FAPα, was compared and analyzed by flow cytometry.

B1: BisG1-FAPα-FERL/DR4-FERR (bispecific antibody, human IgG1, kappa, lambda)
heavy 1: EVQLLESGGGLVQPGGSPRLSCEASGFTFSSYALSWVRQAPGKGLEWVSAISGSGGGRYYADSVKGRFTISRDNSKNTLFLQMNSLRAEDTAVYYCAKEGYSSSGTYWDHWGQGTLVTVSSASTKGPSVFPLAPSSKSTSGGTAALGCLVKDYFPEPVTVSWNSGALTSGVHTFPAVLQSSGLYSLSSVVTVPSSSLGTQTYICNVNHKPSNTKVDKRVEPKSCDKTHTCPPCPAPEFERGPSVFLFPPKPKDTLMISRTPEVTCVVVDVSHEDPEVKFNWYVDGVEVHNAKTKPREEQYNSTYRVVSVLTVLHQDWLNGKEYKCKVSNKALPAPIEKTISKAKGQPREPQVYTLPPSREEMTKNQVSLTCLVKGFYPSDIAVEWESNGQPENNYKTTPPVLDSDGSFLLYSKLTVDKSRWQQGNVFSCSVMHEALHNHYTQKSLSLSPG
light 1: AIQMTQSPSSVSASVGDRVTITCRASQGVSSWLAWYQQKPGRAPKLLIYVASTLQSGVPSRFSGSGSGTDFTLTINSLQPEDFATYYCQQANSFPPTFGQGTRLEMKRTVAAPSVFIFPPSDEQLKSGTASVVCLLNNFYPREAKVQWKVDNALQSGNSQESVTEQDSKDSTYSLSSTLTLSKADYEKHKVYACEVTHQGLSSPVTKSFNRGEC
heavy 2: QVQLQESGPGLVKPSGTLSLTCAVSGGSISSYSWWSWIRQPPGKGLEWIGELYHSGSTNYNPSLKSRVTISVDKSKNQFSLKLRSVTAADTAVYYCVRGVATIDYWGQGTLVTVSSASTKGPSVFPLAPSSKSTSGGTAALGCLVKDYFPEPVTVSWNSGALTSGVHTFPAVLQSSGLYSLSSVVTVPSSSLGTQTYICNVNHKPSNTKVDKRVEPKSCDKTHTCPPCPAPEFERGPSVFLFPPKPKDTLMISRTPEVTCVVVDVSHEDPEVKFNWYVDGVEVHNAKTKPREEQYNSTYRVVSVLTVLHQDWLNGKEYKCKVSNKALPAPIEKTISKAKGQPREPQVYTLPPSREEMTKNQVSLTCLVKGFYPSDIAVEWESNGQPENNYKTTPPVLDSDGSFFLYSRLTVDKSRWQQGNVFSCSVMHEALHNHYTQKSLSLSPG
light 2: QSALTQPPSASGSPGQSVTISCTGTSSDVGGYNFVSWYQQDPGKAPKLLIYEVTKRPSGVPDRFSGSKSGNTASLTVSGLQAEDEADYYCSSYAGSNNVMFGGGTKLTVLGQPKAAPSVTLFPPSSEELQANKATLVCLISDFYPGAVTVAWKADSSPVKAGVETTTPSKQSNNKYAASSYLSLTPEQWKSHRSYSCQVTHEGSTVEKTVAPTECS
notes: Human IgG1 bispecific made by controlled Fab-arm exchange of IgG1-FAPα-FERL and IgG1-DR4-FERR; monovalent for FAPα and for DR4; also called GEN1057
For orientation: EC50 (read off the curve) means the midpoint of the concentration-response curve. On to B1, for which the “EC50 (read off the curve)” value in assay [1] is approximately 1 µg/mL.

B2: BisG1-FAPα-FEAL/b12-FEAR (bispecific antibody, human IgG1, kappa)
heavy 1: EVQLLESGGGLVQPGGSPRLSCEASGFTFSSYALSWVRQAPGKGLEWVSAISGSGGGRYYADSVKGRFTISRDNSKNTLFLQMNSLRAEDTAVYYCAKEGYSSSGTYWDHWGQGTLVTVSSASTKGPSVFPLAPSSKSTSGGTAALGCLVKDYFPEPVTVSWNSGALTSGVHTFPAVLQSSGLYSLSSVVTVPSSSLGTQTYICNVNHKPSNTKVDKRVEPKSCDKTHTCPPCPAPEFEGGPSVFLFPPKPKDTLMISRTPEVTCVVVAVSHEDPEVKFNWYVDGVEVHNAKTKPREEQYNSTYRVVSVLTVLHQDWLNGKEYKCKVSNKALPAPIEKTISKAKGQPREPQVYTLPPSREEMTKNQVSLTCLVKGFYPSDIAVEWESNGQPENNYKTTPPVLDSDGSFLLYSKLTVDKSRWQQGNVFSCSVMHEALHNHYTQKSLSLSPG
light 1: AIQMTQSPSSVSASVGDRVTITCRASQGVSSWLAWYQQKPGRAPKLLIYVASTLQSGVPSRFSGSGSGTDFTLTINSLQPEDFATYYCQQANSFPPTFGQGTRLEMKRTVAAPSVFIFPPSDEQLKSGTASVVCLLNNFYPREAKVQWKVDNALQSGNSQESVTEQDSKDSTYSLSSTLTLSKADYEKHKVYACEVTHQGLSSPVTKSFNRGEC
heavy 2: QVQLVQSGAEVKKPGASVKVSCQASGYRFSNFVIHWVRQAPGQRFEWMGWINPYNGNKEFSAKFQDRVTFTADTSANTAYMELRSLRSADTAVYYCARVGPYSWDDSPQDNYYMDVWGKGTTVIVSSASTKGPSVFPLAPSSKSTSGGTAALGCLVKDYFPEPVTVSWNSGALTSGVHTFPAVLQSSGLYSLSSVVTVPSSSLGTQTYICNVNHKPSNTKVDKRVEPKSCDKTHTCPPCPAPEFEGGPSVFLFPPKPKDTLMISRTPEVTCVVVAVSHEDPEVKFNWYVDGVEVHNAKTKPREEQYNSTYRVVSVLTVLHQDWLNGKEYKCKVSNKALPAPIEKTISKAKGQPREPQVYTLPPSREEMTKNQVSLTCLVKGFYPSDIAVEWESNGQPENNYKTTPPVLDSDGSFFLYSRLTVDKSRWQQGNVFSCSVMHEALHNHYTQKSLSLSPG
light 2: EIVLTQSPGTLSLSPGERATFSCRSSHSIRSRRVAWYQHKPGQAPRLVIHGVSNRASGISDRFSGSGSGTDFTLTITRVEPEDFALYYCQVYGASSYTFGQGTKLERKRTVAAPSVFIFPPSDEQLKSGTASVVCLLNNFYPREAKVQWKVDNALQSGNSQESVTEQDSKDSTYSLSSTLTLSKADYEKHKVYACEVTHQGLSSPVTKSFNRGEC
notes: Fab-arm exchange of IgG1-FAPα-FEAL and IgG1-b12-FEAR
As a reminder, the EC50 is the midpoint of the concentration-response curve. As to B2, a half-maximal effect in assay [2] (EC50) was put at 0.048 µg/mL.

These data come from patent US20250002610A1 (Genmab, published 2025).
